In assay [1] the target is T1, tissue factor pathway inhibitor (TFPI) (UniProt P10646 29-304, limits assumed).
T1 sequence (looked up): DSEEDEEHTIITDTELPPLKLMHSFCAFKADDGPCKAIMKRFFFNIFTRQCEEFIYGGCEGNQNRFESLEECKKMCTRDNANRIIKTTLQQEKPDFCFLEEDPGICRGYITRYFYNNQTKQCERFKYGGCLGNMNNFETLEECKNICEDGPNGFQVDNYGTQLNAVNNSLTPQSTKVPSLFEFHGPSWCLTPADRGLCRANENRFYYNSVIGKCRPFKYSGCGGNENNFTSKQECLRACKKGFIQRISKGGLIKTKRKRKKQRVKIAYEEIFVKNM
As to the kind of experiment: cell-based or functional assay.

The target of assay [2] is T2, factor V (fV) (UniProt P12259 29-2224). The assay can be described thus: SPR, Biacore 3000, CM-5 chip (Prep 1). How it is done: (§1) A few major plasma proteins, including tissue factor pathway inhibitor (TFPI), antithrombin III (ATIII), α-2-macroglobulin, α-1-antitrypsin, factor VII (fVII), factor X (fX), prothrombin, and factor V (fV), were tested for their binding affinity to a wild-type factor Xa (fXa) and two individual preparations (Prep 1 and Prep 2) of the fXa derivative (SEQ ID NO: 3). The binding experiment was conducted with a Biacore® 3000 with the fXa derivative immobilized on a CM-5 sensor chip according to manufacturer's instruction.
On the technique in general: Surface plasmon resonance follows binding to a sensor surface in real time, without labels.

Assay [3] concerns the target T3, α-2-macroglobulin (UniProt P01023 24-1474).
T3 sequence (looked up): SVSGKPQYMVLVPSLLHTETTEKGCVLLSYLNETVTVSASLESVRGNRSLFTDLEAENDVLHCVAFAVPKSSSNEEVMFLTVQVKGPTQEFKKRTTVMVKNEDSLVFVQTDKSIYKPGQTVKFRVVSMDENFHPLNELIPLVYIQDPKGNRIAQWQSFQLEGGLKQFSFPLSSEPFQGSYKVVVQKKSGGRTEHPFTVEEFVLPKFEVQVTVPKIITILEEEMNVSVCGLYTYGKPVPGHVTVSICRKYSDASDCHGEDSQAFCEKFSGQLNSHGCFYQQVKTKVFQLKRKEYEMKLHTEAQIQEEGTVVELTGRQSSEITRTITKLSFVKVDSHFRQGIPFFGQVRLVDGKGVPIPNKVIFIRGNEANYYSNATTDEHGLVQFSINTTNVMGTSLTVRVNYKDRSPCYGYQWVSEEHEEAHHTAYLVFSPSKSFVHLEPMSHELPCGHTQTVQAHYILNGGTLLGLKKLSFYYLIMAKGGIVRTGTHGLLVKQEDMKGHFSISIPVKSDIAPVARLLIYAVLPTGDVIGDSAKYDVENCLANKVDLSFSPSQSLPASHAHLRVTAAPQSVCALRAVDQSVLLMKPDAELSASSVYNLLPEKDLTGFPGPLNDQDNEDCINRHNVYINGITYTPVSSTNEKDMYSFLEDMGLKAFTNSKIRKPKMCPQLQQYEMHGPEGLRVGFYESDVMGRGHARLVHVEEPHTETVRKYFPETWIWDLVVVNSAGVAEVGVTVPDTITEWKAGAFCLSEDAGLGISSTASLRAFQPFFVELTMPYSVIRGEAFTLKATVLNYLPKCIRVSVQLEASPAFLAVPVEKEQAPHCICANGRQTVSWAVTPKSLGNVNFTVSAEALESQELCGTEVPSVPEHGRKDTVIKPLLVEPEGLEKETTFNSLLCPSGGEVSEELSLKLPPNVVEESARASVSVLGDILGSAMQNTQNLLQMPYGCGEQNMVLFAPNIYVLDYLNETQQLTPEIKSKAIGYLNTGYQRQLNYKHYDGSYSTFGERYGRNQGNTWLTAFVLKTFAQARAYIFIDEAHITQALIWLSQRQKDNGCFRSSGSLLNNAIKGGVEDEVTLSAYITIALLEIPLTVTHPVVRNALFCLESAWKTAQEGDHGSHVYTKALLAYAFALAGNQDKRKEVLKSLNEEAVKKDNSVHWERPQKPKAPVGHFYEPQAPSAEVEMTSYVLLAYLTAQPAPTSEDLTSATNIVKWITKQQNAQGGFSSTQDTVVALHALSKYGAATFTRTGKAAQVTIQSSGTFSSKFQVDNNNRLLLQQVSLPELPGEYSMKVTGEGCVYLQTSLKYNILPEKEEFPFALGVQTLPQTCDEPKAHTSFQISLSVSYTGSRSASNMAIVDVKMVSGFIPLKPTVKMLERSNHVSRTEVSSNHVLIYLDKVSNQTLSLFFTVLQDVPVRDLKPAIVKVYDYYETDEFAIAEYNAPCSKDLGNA
The assay can be described thus: SPR, Biacore 3000, CM-5 chip (Prep 1). How it is done:
as §1

Assay [4] has as its target T4, α-1-antitrypsin (UniProt P01009 25-418). The assay can be described thus: SPR, Biacore 3000, CM-5 chip (Prep 1). Here is the method: as §1
Assay [5] concerns the target T5, factor X (fX) (UniProt P00742 41-488). As to the kind of experiment: SPR, Biacore 3000, CM-5 chip (Prep 1). How it is done: as §1
The target of assay [6] is T6, prothrombin (UniProt P00734 44-622). As to the kind of experiment: SPR, Biacore 3000, CM-5 chip (Prep 1). Here is the method: as §1
In assay [7] the target is T7, factor VII (fVII) (UniProt P08709 61-466).
T7 sequence (looked up): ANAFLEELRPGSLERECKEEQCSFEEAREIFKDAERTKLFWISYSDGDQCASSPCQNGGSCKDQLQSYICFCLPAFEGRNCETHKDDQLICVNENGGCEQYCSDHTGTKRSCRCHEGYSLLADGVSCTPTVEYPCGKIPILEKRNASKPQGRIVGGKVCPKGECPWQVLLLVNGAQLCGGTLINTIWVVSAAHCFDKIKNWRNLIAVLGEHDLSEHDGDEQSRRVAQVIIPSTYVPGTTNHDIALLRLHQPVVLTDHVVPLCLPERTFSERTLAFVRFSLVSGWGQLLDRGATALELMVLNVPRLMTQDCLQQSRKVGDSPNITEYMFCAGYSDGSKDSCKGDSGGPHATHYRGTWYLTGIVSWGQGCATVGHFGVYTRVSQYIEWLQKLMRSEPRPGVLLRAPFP
The assay can be described thus: SPR, Biacore 3000, fXa derivative immobilized on CM-5 chip. How it is done:
as §1

Assay [8] concerns the target T1, tissue factor pathway inhibitor (TFPI). As to the kind of experiment: Kd of fXa derivative-TFPI over Ki of TFPI-fXa, fXa chromogenic assay (FIG. 1C).
Assay [9] has the same target. The assay can be described thus: Kd of fXa derivative-TFPI over Ki of TFPI-fXa, fXa chromogenic assay (FIG. 1D). Here is the method: The binding kinetics were determined using three different concentrations of the fXa derivative (0, 1 nM, and 5 nM) and escalating doses of TFPI, up to about 12 nM. fXa chromogenic activity was measured following a 2 hour incubation of fXa (1 nM). Residual fXa activity was measured by cleavage of the peptidyl substrate Spectrozyme-fXa (100 μM).

The target is the same in assay [10]. The assay can be described thus: competition in the fXa chromogenic activity assay: SEQ ID NO: 3 competes with fXa (0.5 nM) for TFPI (1.0 nM).
Assay [11] has the same target. The assay can be described thus: competition in the fXa chromogenic activity assay: SEQ ID NO: 3 competes with fXa (1.0 nM) for TFPI (1.0 nM).
Assay [12] deals with T2, factor V (fV). As to the kind of experiment: SPR, Biacore 3000, CM-5 chip. How it is done:
as §1

Assay [13] has as its target antithrombin III (ATIII) (UniProt P01008 33-464). As to the kind of experiment: SPR, Biacore 3000, CM-5 chip. How it is done:
as §1

Assay [14] concerns the target T3, α-2-macroglobulin. The assay can be described thus: SPR, Biacore 3000, CM-5 chip. Here is the method:
as §1

The target in assay [15] is T4, α-1-antitrypsin. As to the kind of experiment: SPR, Biacore 3000, CM-5 chip. How it is done: as §1
The target of assay [16] is T7, factor VII (fVII). As to the kind of experiment: SPR, Biacore 3000, CM-5 chip. How it is done: as §1
For assay [17], the target named is T5, factor X (fX). As to the kind of experiment: SPR, Biacore 3000, CM-5 chip. Here is the method: as §1
Assay [18] deals with T6, prothrombin. The assay can be described thus: SPR, Biacore 3000, CM-5 chip. How it is done:
as §1

By Kd is commonly meant the concentration at which binding is half-saturated. Broadly, the EC50 (read off the curve) is the concentration at which the effect is half-maximal. The low end stands for a more potent agent, the high end for a less potent agent.

T2 sequence (P12259 29-2224 limits assumed): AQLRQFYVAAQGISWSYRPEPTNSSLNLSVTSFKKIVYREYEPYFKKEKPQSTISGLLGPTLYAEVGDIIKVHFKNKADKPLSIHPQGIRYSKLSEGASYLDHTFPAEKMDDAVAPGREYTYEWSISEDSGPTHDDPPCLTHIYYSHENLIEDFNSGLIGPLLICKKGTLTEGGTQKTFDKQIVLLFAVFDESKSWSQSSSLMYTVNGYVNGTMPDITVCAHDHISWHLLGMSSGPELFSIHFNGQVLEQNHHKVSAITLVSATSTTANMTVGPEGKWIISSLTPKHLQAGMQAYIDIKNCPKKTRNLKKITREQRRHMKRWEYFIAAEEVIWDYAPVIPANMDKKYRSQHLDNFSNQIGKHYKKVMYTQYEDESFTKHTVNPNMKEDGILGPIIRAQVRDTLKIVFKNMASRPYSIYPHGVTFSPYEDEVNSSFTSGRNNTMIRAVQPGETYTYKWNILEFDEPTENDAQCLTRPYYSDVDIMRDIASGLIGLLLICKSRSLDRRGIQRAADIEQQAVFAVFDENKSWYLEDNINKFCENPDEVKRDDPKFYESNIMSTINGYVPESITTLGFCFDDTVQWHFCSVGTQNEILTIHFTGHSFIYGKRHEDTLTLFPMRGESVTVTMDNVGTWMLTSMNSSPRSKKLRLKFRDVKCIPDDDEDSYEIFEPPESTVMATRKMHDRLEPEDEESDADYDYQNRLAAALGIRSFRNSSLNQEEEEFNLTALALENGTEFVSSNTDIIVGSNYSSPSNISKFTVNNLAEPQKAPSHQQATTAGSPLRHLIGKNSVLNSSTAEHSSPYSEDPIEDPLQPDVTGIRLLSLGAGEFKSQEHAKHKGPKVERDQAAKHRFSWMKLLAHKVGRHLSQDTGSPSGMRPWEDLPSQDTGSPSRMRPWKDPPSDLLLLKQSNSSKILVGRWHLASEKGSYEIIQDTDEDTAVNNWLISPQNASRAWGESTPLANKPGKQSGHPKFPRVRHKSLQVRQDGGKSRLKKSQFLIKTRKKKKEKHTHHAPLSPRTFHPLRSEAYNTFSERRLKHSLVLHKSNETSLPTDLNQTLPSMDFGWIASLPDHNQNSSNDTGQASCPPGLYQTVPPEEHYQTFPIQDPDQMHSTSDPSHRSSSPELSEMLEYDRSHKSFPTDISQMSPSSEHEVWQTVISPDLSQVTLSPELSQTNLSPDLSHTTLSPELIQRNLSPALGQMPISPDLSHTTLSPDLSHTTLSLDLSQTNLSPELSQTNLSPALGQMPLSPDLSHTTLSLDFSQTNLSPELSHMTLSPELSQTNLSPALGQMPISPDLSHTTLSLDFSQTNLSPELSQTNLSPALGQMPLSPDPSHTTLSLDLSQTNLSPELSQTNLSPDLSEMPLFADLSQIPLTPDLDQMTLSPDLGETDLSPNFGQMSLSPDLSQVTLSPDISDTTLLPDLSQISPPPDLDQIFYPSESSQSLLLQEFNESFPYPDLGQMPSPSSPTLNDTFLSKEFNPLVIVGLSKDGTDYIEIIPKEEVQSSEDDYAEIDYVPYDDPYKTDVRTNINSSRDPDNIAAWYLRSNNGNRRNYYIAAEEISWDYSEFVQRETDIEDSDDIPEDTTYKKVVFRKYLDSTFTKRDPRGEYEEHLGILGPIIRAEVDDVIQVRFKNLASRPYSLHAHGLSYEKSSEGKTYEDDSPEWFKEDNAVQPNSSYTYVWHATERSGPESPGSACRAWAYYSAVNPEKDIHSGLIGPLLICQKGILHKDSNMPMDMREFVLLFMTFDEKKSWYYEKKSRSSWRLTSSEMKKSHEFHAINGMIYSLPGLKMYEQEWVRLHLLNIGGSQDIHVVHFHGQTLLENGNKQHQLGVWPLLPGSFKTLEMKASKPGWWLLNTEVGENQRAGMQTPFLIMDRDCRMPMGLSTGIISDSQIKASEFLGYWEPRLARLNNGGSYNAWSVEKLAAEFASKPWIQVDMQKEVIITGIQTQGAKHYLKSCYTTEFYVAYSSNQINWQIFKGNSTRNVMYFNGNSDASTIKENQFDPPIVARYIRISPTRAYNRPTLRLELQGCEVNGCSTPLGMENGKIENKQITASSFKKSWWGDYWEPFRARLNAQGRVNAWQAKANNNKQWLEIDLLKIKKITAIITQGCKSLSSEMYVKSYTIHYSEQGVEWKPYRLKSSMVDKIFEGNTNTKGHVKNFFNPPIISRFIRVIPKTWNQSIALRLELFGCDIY
T4 sequence (P01009 25-418 limits assumed): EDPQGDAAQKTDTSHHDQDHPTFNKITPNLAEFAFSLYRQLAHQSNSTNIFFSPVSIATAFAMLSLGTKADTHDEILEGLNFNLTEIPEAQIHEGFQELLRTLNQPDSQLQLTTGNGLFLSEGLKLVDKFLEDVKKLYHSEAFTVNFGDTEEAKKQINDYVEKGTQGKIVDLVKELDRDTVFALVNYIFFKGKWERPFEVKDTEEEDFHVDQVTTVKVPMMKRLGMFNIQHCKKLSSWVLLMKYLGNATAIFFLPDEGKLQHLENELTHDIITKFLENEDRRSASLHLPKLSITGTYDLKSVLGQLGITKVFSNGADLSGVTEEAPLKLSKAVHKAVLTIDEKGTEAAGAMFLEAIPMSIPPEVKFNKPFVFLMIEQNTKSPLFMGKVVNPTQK
Chain of antithrombin III (ATIII) (P01008 33-464 limits assumed): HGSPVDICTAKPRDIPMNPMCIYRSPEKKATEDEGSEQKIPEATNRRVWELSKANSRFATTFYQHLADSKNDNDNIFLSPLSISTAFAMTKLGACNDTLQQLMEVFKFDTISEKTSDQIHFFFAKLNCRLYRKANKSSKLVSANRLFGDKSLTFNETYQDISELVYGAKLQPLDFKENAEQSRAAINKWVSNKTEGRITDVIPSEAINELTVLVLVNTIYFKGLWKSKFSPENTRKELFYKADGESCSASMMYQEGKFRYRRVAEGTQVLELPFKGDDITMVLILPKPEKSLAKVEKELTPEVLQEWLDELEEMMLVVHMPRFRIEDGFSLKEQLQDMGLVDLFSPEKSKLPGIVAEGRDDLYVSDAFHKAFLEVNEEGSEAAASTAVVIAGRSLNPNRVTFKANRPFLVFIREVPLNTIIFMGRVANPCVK

B1: fXa derivative (SEQ ID NO: 3) (other)
light: ANSFLFWNKYKDGDQCETSPCQNQGKCKDGLGEYTCTCLEGFEGKNCELFTRKLCSLDNGDCDQFCHEEQNSVVCSCARGYTLADNGKACIPTGPYPCGKQTLER
heavy: IVGGQECKDGECPWQALLINEENEGFCGGTILSEFYILTAAHCLYQAKRFKVRVGDRNTEQEEGGEAVHEVEVVIKHNRFTKETYDFDIAVLRLKTPITFRMNVAPACLPERDWAESTLMTQKTGIVSGFGRTHEKGRQSTRLKMLEVPYVDRNSCKLSSSFIITQNMFCAGYDTKQEDACQGDAGGPHVTRFKDTYFVTGIVSWGEGCARKGKYGIYTKVTAFLKWIDRSMKTRGLPKAKSHAPEVITSSPLK
notes: Prep 1 and Prep 2 are two preparations of the same molecule; also called fXa derivative Prep 1; fXa derivative Prep 2
With B1, the “EC50 (read off the curve): fXa formed after 15 min by fVIIa/TF with 2.4 nM TFPI” value in assay [1] was around 5 nM. The binding result in [2], in assay [3], in assay [4], in assay [5] and in assay [6] was “no binding” in each case. The same molecule returned a Kd in assay [7] of 2780 nM. Moreover, the “Ratio (Kd/Ki)” value in assay [8] came to 2.69; in [9], 4.97. Besides, the “EC50 (read off the curve)” value in assay [10] and in assay [11] was around 2 nM in each case.

B2: wild-type factor Xa (fXa) (enzyme)
light: ANSFLEEMKKGHLERECMEETCSYEEAREVFEDSDKTNEFWNKYKDGDQCETSPCQNQGKCKDGLGEYTCTCLEGFEGKNCELFTRKLCSLDNGDCDQFCHEEQNSVVCSCARGYTLADNGKACIPTGPYPCGKQTLER
heavy: IVGGQECKDGECPWQALLINEENEGFCGGTILSEFYILTAAHCLYQAKRFKVRVGDRNTEQEEGGEAVHEVEVVIKHNRFTKETYDFDIAVLRLKTPITFRMNVAPACLPERDWAESTLMTQKTGIVSGFGRTHEKGRQSTRLKMLEVPYVDRNSCKLSSSFIITQNMFCAGYDTKQEDACQGDSGGPHVTRFKDTYFVTGIVSWGEGCARKGKYGIYTKVTAFLKWIDRSMKTRGLPKAKSHAPEVITSSPLK
modifications: 11 gamma-carboxyglutamic acid residues (Gla) in the Gla domain, residues 1-45 of SEQ ID NO. 1
Turning to B2, the binding result in assay [12], in assay [14], in [15], in assay [17] and in assay [18] was “no binding” each time. In addition, the equilibrium dissociation constant (Kd) is 1060 to 13200 nM in [13] and 2970 nM in assay [16].

The record behind these values is patent US20180333469A1 (PORTOLA PHARMACEUTICALS, published 2018).
